The results in this text go back to patent US20210032308A1 (published 2021).

Test [1] has as its target ML3d1-Pfe. The test can be described thus: SPR.
Test [2] concerns the target ML1d1-Pfe. The test can be described thus: SPR.

B1: CD2 (receptor)
chain: KEITNALETWGALGQDINLDIPSFQMSDDIDDIKWEKTSDKKKIAQFRKEKETFKEKDTYKLFKNGTLKIKHLKTDDQDIYKVSIYDTKGKNVLEKIFDLKIQERVSKPKISWTCINTTLTCEVMNGTDPELNLYQDGKHLKLSQRVITHKWTTSLSAKFKCTAGNKVSKESSVEPVSCPEKGLD
modifications: biotinylated (site not stated)
Take B1: the dissociation constant (Kd) in test [1] came out at 52 nM; in test [2], 82 nM.

Usually Kd stands for the free concentration of one partner at which half of the binding sites on the other are occupied at equilibrium, for simple one-to-one binding. A lower Kd goes with higher affinity.
